B1: complex of Cy5.5-labeled SEQ ID NO: 17 peptide for penetrating the blood-brain barrier and SEQ ID NO: 59 antibody: complex of SEQ ID NO: 17 blood-brain barrier penetrating peptide and SEQ ID NO: 59 … (conjugate)
chain 1: VSRRRRRRGGRRRRVPALR
chain 2: MAWVWTLLFLMAAAQSIQAEWIKQRPGQGLEWIGVIHPGNGGTNYNENFKGKATLTADKSSSTAYMQLSSLTSDDSAVYFCASGNDGSYWGQGTTVTVSSGGGGSGKGGSGGGGSGGGGSDIELTQSPSSLTVTAGEKVTMSCKSSQSLLNSGDQKIYLTWYQQKPGQPPKLLIYWASTRESGVPDRFTGSVSGTDFTLTISSVQAEDLAVYYCQNDYNYPYTFGGGTKCLEIKRGSENLYFQGGSGKPIPNPLLGLDSTGGSGGSHHHHHH
modifications: Cy5.5 label; conjugated complex
B2: SEQ ID NO: 59 antibody: antibody represented by amino acid sequence of SEQ ID NO: 59, has therapeutic efficacy in glioblastoma (protein)
chain: B1 chain 2
B3: complex of CGGGG-SEQ ID NO: 41 peptide for penetrating the blood-brain barrier and SEQ ID NO: 59 antibody: SEQ ID NO: 41 peptide with N-terminal linker CGGGG chemically conjugated to antibody of SEQ … (conjugate)
chain 1: VSRRRRRRGGRRRRHAIYPRH
chain 2: B1 chain 2
modifications: N-terminal CGGGG linker; chemical conjugation

Columns and labels:
[1] = Brain delivery of peptide-antibody complex in normal animals (IVIS organ fluorescence, Optix MX3 3D brain image); format: in vivo, hairless mouse (SKH-1); details: Cy5.5 labeled, intravenous 4 mg/kg; for fluorescence in the brain (IVIS): FIG. 4(a); for extent of penetration into the brain (three-dimensional image): Optix MX3, FIG. 4(b)
Procedure: Cy5.5 labeled SEQ ID NO: 17 peptide for penetrating the blood-brain barrier, Cy5.5 labeled SEQ ID NO: 59 antibody, and the complex of Cy5.5-labeled SEQ ID NO: 17 peptide for penetrating the blood-brain barrier and SEQ ID NO: 59 antibody were injected intravenously at 4 mg/kg each to hairless mouse (SKH-1, female, 6 weeks old, OrientBio), and fluorescence in each organ (brain, liver, lung, spleen, kidney, heart) was measured at excitation: 685 nm and emission: 706 nm using IVIS (Perkin Elmer). In addition, three-dimensional images of the brain alone were measured using Optix MX3 (ART Advanced Research Technologies Inc.).

[2] = Concentration in blood and brain tissue of peptide-antibody complex in normal animals (IVIS); format: in vivo, hairless mouse (SKH-1)
Procedure: The control cell permeability peptide (TAT) and antibody of SEQ ID NO: 59 were prepared in the same manner as the expression method in Example 2 and labeled with cy5.5. The complex of the peptide for penetrating the blood-brain barrier of SEQ ID NO: 41 in which CGGGG was introduced in N term and the antibody of SEQ ID NO: 59 prepared in Example 2 was labeled labeled with Cy5.5. The antibody of SEQ ID NO: 59 was labeled with Cy5.5 and injected intravenously into hairless mouse (SKH-1, female, 6 weeks old, OrientBio) at 10 mg/kg each. Concentrations in brain and blood were measured at excitation: 685 nm and emission: 706 nm using IVIS (Perkin Elmer) until day 24, and the results are shown in FIG. 5.

U87MG-Luc 2 glioblastoma = assay: Brain tumor animal model, bioluminescence and distribution at tumor site; format: in vivo, mouse; details: for bioluminescence of U87MG-Luc brain tumor cells: 1 mg/kg intravenous every 3 days, 4 doses, observed 16 days
Procedure: Using a brain tumor animal model, the ability of the complex of the peptide for penetrating the blood-brain barrier and antibody to penetrate the brain, inhibit brain tumors, and be distributed in the brain parenchyma was measured. Specifically, U87MG-Luc 2 (ATCC, HTB-14-LUC2™) cells, a luciferase-expressing U87MG glioblastoma, were cultured in DMEM medium supplemented with 10% FBS and 1% antibiotics. Nude 5- to 7-week-old mouse (Orient Bio) was anesthetized with isoflurane and immobilized using ear bars inside a stereotaxic instrument. After incising the scalp at the surgical site, a hole was made using a sterile drill 2 mm to the right to and 2 mm under the bregma. Then, 1.0×10^5/10 μL U87MG-Luc-2 cells were injected through the above hole with a 26G Hamilton syringe (1 μl/min), and after injection, the hole was closed with bone wax and sutured to close the scalp. The proliferation of transplanted glioblastoma was obtained by injecting D-luciferin potassium (15 mg/mL dissolved in PBS, sigma), a substrate of luciferase, at 150 mg/kg, to a mouse, and sacrificing it after 10 min, and measuring the bioluminescence using IVIS (Perkin Elmer), and the results are shown in FIG. 6.
Starting 4 days after glioblastoma transplantation, 1 mg/kg of the complex of CGGGG-SEQ ID NO: 41 peptide for penetrating the blood-brain barrier and SEQ ID NO: 59 antibody and 1 mg/kg SEQ ID NO: 59 antibody were injected intravenously. The administration interval between doses was every 3 days for a total of 4 doses for 16 days. […] FIG. 6 (a) is the photo of an IVIS observation of bioluminescence of U87MG-Luc cells on day 16. […] After 16 days of bioluminescence observation, the bioluminescence continued to increase in the glioblastoma transplanted and untreated group.
The complex of a peptide for penetrating the blood-brain barrier of CGGGG-SEQ ID NO: 41 labeled with cy5.5 and a SEQ ID NO: 59 antibody was administered to the same animal model 8 hours before sacrifice, and the brain was harvested. After frozen sectioning, the distribution of fluorescence was observed by confocal microscopy.

[3] = Cy5.5 labeled, intravenous 10 mg/kg

| Molecule | fluorescence in the brain (IVIS) [1] | extent of penetration into the brain (three-dimensional image) [1] | fluorescence in brain tissue [2, 3] | time to clearance from the blood ([2]; Cy5.5 labeled, intravenous 10 mg/kg, measured until day 24) | bioluminescence of U87MG-Luc brain tumor cells (U87MG-Luc 2 glioblastoma) | fluorescence in brain tissue, % of the initial dose ([2]; 4 days after intravenous injection, 10 mg/kg) | blood levels compared with the antibody linked to TAT [2, 3] | distribution of fluorescence in the brain (confocal, frozen sections) (U87MG-Luc 2 glioblastoma; cy5.5 labeled, administered 8 hours before sacrifice, FIG. 6(c)) |
| --- | --- | --- | --- | --- | --- | --- | --- | --- |
| VSRRRRRRRGGRRRRR-VPALR [SEQ ID NO: 17] | fluorescence could be observed in the brain | the extent of penetration into the brain was large |  |  |  |  |  |  |
| B1 | fluorescence could be observed in the brain | the extent of penetration into the brain was large |  |  |  |  |  |  |
| B2 | fluorescence was not observed in the brain | observed to a lesser extent inside the brain | no fluorescence was measured in brain tissue | ≤ 12 days | many brain tumor cells survived |  |  |  |
| B3 |  |  |  |  | the bioluminescence caused by brain tumor cells decreased | approximately 7% | higher | distributed in the area where the brain tumor occurred |

— US20240398964A1, “PEPTIDE FOR PENETRATING BLOOD-BRAIN BARRIER AND USE THEREOF” (NIBEC CO., LTD., priority 2021, published 2024)
